Numbering of substitutions follows the chain as printed.
What was measured:
Experiment in all cases: EMSA
Conditions in all cases: tags: MBP fusion
ZFP SBS#425 = ZFP SBS#425 (synthetic)
Procedure, shortened: (§1)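 Purified ZFP was titrated against labeled double-stranded target (1 nM or lower, at least 10-fold below expected Kd) carrying the natural binding site with flanks. Binding buffer was 10 mM Tris pH 7.5, 100 mM KCl, 1 mM MgCl2, 0.1 mM ZnCl2, 5 mM DTT, 10% glycerol, 0.02% BSA, with equilibration for at least 45 min. Bound and free target were separated on a 10% polyacrylamide gel.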

ZFP SBS#565 = ZFP SBS#565 (synthetic)
Procedure, shortened: as §1

ZFP SBS#424 = ZFP SBS#424 (synthetic)
Procedure, shortened: as §1

ZFP SBS#426 = ZFP SBS#426 (synthetic)
Procedure, shortened: as §1

ZFP SBS#374 = ZFP SBS#374 (synthetic)
Procedure, shortened: as §1

ZFP SBS#427 = ZFP SBS#427 (synthetic)
Procedure, shortened: as §1

ZFP SBS#709 = target: T1, ZFP SBS#709 (synthetic)
T1 chain: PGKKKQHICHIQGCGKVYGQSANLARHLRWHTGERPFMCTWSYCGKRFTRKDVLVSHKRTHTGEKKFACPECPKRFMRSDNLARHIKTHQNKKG
Procedure, shortened: as §1

ZFP SBS#710 = ZFP SBS#710 (synthetic)
Procedure, shortened: as §1

ZFP SBS#711 = target: T2, ZFP SBS#711 (synthetic)
T2 chain: T1 chain with A22G, K51Q, V53T, S56G
Procedure, shortened: as §1

ZFP SBS#708 = target: T3, ZFP SBS#708 (synthetic)
T3 chain: T1 chain with K51Q, V53T, S56G
Procedure, shortened: as §1

ZFP SBS#600 = ZFP SBS#600 (synthetic)
Procedure, shortened: as §1

ZFP SBS#601 = target: T4, ZFP SBS#601 (synthetic)
T4 chain: T1 chain with Q20R, A25T, K51L, V53G, V55R, S56T
Procedure, shortened: as §1

ZFP SBS#602 = target: T5, ZFP SBS#602 (synthetic)
T5 chain: T1 chain with Q20R, A25T, K51Q, V53T, S56G
Procedure, shortened: as §1

ZFP SBS#603 = ZFP SBS#603 (synthetic)
Procedure, shortened: as §1

ZFP SBS#692 = target: T6, ZFP SBS#692 (synthetic, UniProt P08047)
T6 chain: T1 chain with Q20R, A22D, A25T, K51S, V53E, V55Q, S56R, A83T, R84Q
Procedure, shortened: as §1

ZFP SBS#693 = target: T7, ZFP SBS#693 (synthetic)
T7 chain: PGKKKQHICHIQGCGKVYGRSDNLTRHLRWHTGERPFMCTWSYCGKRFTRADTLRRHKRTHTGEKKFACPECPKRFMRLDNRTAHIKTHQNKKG
Procedure, shortened: as §1

ZFP SBS#689 = target: T8, ZFP SBS#689 (synthetic)
T8 chain: T7 chain with A51S, T53E, R55Q
Procedure, shortened: as §1

ZFP SBS#694 = target: T9, ZFP SBS#694 (synthetic)
T9 chain: T7 chain with L79S, R82L, A84Q
Procedure, shortened: as §1

ZFP SBS#695 = target: T10, ZFP SBS#695 (synthetic)
T10 chain: T7 chain with D22S, R50D, A51R, D52S, T53H, R55A, L79S, N81H, R82L, A84R
Procedure, shortened: as §1

ZFP SBS#697 = target: T11, ZFP SBS#697 (synthetic)
T11 chain: T7 chain with N23E, A51S, T53E, R55S, R78Q, L79S, D80G, N81H, R82L, A84K
Procedure, shortened: as §1

ZFP SBS#698 = target: T12, ZFP SBS#698 (synthetic)
T12 chain: T7 chain with N23E, A51S, T53E, R55S, R78Q, L79S, D80H, N81G, R82L, A84S
Procedure, shortened: as §1

ZFP SBS#699 = ZFP SBS#699 (synthetic)
Procedure, shortened: as §1

ZFP SBS#700 = ZFP SBS#700 (synthetic)
Procedure, shortened: as §1

ZFP SBS#702 = target: T13, ZFP SBS#702 (synthetic)
T13 chain: T1 chain with Q20R, A22D, K51S, V53E, V55Q, S56R, R78Q, D80G, N81D, A83T
Procedure, shortened: as §1

ZFP SBS#701 = ZFP SBS#701 (synthetic)
Procedure, shortened: as §1

ZFP SBS#706 = target: T14, ZFP SBS#706 (synthetic, UniProt P08047)
T14 chain: T1 chain with Q20R, A22D, N23H, K51S, V53S, V55L, S56R, N81H, A83S
Procedure, shortened: as §1

ZFP SBS#705 = target: T15, ZFP SBS#705 (synthetic, UniProt P08047)
T15 chain: T1 chain with Q20R, A22D, N23H, K51S, V53S, V55A, S56R, N81H, A83S
Procedure, shortened: as §1

ZFP SBS#714 = target: T16, ZFP SBS#714 (synthetic)
T16 chain: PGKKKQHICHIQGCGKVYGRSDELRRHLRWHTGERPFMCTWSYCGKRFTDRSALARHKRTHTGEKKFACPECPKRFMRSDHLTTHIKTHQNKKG
Procedure, shortened: as §1

ZFP SBS#715 = target: T17, ZFP SBS#715 (synthetic)
T17 chain: T16 chain with S21A, E23T
Procedure, shortened: as §1

ZFP SBS#716 = target: T18, ZFP SBS#716 (synthetic)
T18 chain: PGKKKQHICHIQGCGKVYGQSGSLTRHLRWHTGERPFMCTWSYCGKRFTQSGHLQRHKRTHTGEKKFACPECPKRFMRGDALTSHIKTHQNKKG
Procedure, shortened: as §1

ZFP SBS#718 = target: T19, ZFP SBS#718 (synthetic)
T19 chain: T18 chain with G79S, S84R
Procedure, shortened: as §1

ZFP SBS#717 = ZFP SBS#717 (synthetic)
Procedure, shortened: as §1

ZFP SBS#719 = target: T20, ZFP SBS#719 (synthetic)
T20 chain: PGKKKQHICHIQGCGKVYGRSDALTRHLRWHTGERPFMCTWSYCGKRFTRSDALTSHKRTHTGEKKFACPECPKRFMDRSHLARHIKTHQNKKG
Procedure, shortened: as §1

ZFP SBS#724 = target: T21, ZFP SBS#724 (synthetic)
T21 chain: T20 chain with T55R, S56Q
Procedure, shortened: as §1

ZFP SBS#720 = target: T22, ZFP SBS#720 (synthetic)
T22 chain: T1 chain with Q20T, S21T, A22S, K51S, V53N, V55A, S56R, R78Q, D80G, A83T
Procedure, shortened: as §1

ZFP SBS#726 = ZFP SBS#726 (synthetic)
Procedure, shortened: as §1

ZFP SBS#722 = target: T23, ZFP SBS#722 (synthetic)
T23 chain: T20 chain with A53H, S56R, D78R, R79S, S80D, H81A, A83R, R84Q
Procedure, shortened: as §1

ZFP SBS#725 = ZFP SBS#725 (synthetic)
Procedure, shortened: as §1

ZFP SBS#731 = ZFP SBS#731 (synthetic)
Procedure, shortened: as §1

ZFP SBS#710 (synthetic), sequence (chain, as listed by the source): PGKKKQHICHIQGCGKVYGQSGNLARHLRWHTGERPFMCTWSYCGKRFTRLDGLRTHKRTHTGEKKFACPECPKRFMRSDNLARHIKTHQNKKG
ZFP SBS#426 (synthetic), sequence (chain, as listed by the source): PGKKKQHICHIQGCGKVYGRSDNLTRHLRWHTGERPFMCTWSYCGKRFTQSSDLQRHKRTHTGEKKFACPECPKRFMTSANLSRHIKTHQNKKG
ZFP SBS#565 (synthetic), sequence (chain, as listed by the source): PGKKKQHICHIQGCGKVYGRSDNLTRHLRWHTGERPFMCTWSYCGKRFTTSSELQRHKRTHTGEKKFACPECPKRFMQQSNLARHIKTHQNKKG
ZFP SBS#424 (synthetic), sequence (chain, as listed by the source): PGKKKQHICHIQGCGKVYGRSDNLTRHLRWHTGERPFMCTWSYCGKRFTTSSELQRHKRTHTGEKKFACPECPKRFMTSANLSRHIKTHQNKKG
ZFP SBS#374 (synthetic), sequence (chain, as listed by the source): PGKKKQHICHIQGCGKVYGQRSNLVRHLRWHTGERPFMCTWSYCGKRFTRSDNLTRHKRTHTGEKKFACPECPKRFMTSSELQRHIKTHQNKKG
ZFP SBS#600 (synthetic), sequence (chain, as listed by the source): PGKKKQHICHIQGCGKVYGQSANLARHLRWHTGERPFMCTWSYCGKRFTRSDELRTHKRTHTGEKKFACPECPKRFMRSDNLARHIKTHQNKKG
ZFP SBS#700 (synthetic), sequence (chain, as listed by the source): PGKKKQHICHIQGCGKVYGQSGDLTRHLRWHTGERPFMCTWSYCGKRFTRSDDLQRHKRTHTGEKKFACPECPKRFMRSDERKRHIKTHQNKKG
ZFP SBS#427 (synthetic), sequence (chain, as listed by the source): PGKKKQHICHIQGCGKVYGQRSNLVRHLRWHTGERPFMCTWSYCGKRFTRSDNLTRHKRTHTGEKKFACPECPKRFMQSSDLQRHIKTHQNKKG
ZFP SBS#731 (synthetic), sequence (chain, as listed by the source): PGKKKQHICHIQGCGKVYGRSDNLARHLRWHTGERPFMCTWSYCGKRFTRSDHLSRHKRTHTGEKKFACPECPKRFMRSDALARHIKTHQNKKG
ZFP SBS#725 (synthetic), sequence (chain, as listed by the source): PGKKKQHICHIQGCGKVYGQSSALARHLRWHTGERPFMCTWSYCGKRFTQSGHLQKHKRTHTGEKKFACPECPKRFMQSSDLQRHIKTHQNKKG
ZFP SBS#701 (synthetic), sequence (chain, as listed by the source): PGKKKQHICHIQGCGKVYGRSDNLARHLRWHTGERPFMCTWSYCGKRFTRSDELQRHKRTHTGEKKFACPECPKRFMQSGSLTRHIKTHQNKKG
ZFP SBS#603 (synthetic), sequence (chain, as listed by the source): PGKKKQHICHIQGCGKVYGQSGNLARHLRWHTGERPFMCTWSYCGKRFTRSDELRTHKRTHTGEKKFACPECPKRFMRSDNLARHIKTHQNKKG
ZFP SBS#699 (synthetic), sequence (chain, as listed by the source): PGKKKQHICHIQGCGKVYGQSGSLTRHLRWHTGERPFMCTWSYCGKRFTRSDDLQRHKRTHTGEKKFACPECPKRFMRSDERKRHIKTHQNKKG
ZFP SBS#726 (synthetic), sequence (chain, as listed by the source): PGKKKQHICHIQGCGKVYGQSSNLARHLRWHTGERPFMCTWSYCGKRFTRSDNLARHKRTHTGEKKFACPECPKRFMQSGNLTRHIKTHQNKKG

B1: GATGCTGAG (dsDNA)
DNA 1: GATGCTGAG
DNA 2: CTCAGCATC
ZFP SBS#425
  Kd: 25 nM
ZFP SBS#565
  Kd: 100 nM
ZFP SBS#424
  Kd: 100 nM
ZFP SBS#426
  Kd: 5.5 nM

B2: GCTGAGGAA (dsDNA)
DNA 1: GCTGAGGAA
DNA 2: TTCCTCAGC
ZFP SBS#374
  Kd: 3.3 nM
ZFP SBS#427
  Kd: 1 nM

B3: GAGTCGGAA (dsDNA)
DNA 1: GAGTCGGAA
DNA 2: TTCCGACTC
ZFP SBS#709
  Kd: 400 nM
ZFP SBS#710
  Kd: 400 nM
ZFP SBS#711
  Kd: 400 nM
ZFP SBS#708
  Kd: 300 nM
ZFP SBS#600
  Kd: 207 nM
ZFP SBS#601
  Kd: 607 nM
ZFP SBS#602
  Kd: 617 nM
ZFP SBS#603
  Kd: 167 nM

B4: AAGGCGGAGA (dsDNA)
DNA 1: AAGGCGGAGA
DNA 2: TCTCCGCCTT
ZFP SBS#692
  Kd: 51 nM
ZFP SBS#693
  Kd: 95 nM
ZFP SBS#689
  Kd: 82.5 nM
ZFP SBS#694
  Kd: 28.5 nM

B5: GGGGGCGAGC (dsDNA)
DNA 1: GGGGGCGAGC
DNA 2: GCTCGCCCCC
ZFP SBS#695
  Kd: 850 nM

B6: TGAGCGGCGG (dsDNA)
DNA 1: TGAGCGGCGG
DNA 2: CCGCCGCTCA
ZFP SBS#697
  Kd: 200 nM
ZFP SBS#698
  Kd: 300 nM

B7: GCGGCGGCAG (dsDNA)
DNA 1: GCGGCGGCAG
DNA 2: CTGCCGCCGC
ZFP SBS#699
  Kd: 21.5 nM
ZFP SBS#700
  Kd: 45 nM

B8: GCAGCGGAGC (dsDNA)
DNA 1: GCAGCGGAGC
DNA 2: GCTCCGCTGC
ZFP SBS#702
  Kd: 73.5 nM
ZFP SBS#701
  Kd: 50.5 nM

B9: GGGGTGGGGC (dsDNA)
DNA 1: GGGGTGGGGC
DNA 2: GCCCCACCCC
ZFP SBS#706
  Kd: 0.05 nM
ZFP SBS#705
  Kd: 0.01 nM

B10: TGGGTCGCGG (dsDNA)
DNA 1: TGGGTCGCGG
DNA 2: CCGCGACCCA
ZFP SBS#714
  Kd: 200 nM
ZFP SBS#715
  Kd: 0.46 nM

B11: TTGGGAGCAC (dsDNA)
DNA 1: TTGGGAGCAC
DNA 2: GTGCTCCCAA
ZFP SBS#716
  Kd: 200 nM
ZFP SBS#718
  Kd: 108 nM
ZFP SBS#717
  Kd: 150 nM

B12: GGCATGGTGG (dsDNA)
DNA 1: GGCATGGTGG
DNA 2: CCACCATGCC
ZFP SBS#719
  Kd: 20 nM
ZFP SBS#724
  Kd: 2.5 nM

B13: GAAGAGGATG (dsDNA)
DNA 1: GAAGAGGATG
DNA 2: CATCCTCTTC
ZFP SBS#720
  Kd: 1.6 nM
ZFP SBS#726
  Kd: 1.5 nM

B14: ATGGGGGTGG (dsDNA)
DNA 1: ATGGGGGTGG
DNA 2: CCACCCCCAT
ZFP SBS#722
  Kd: 0.7 nM

B15: GCTTGAGTTA (dsDNA)
DNA 1: GCTTGAGTTA
DNA 2: TAACTCAAGC
ZFP SBS#725
  Kd: 3000 nM

B16: GTGGGGGAGA (dsDNA)
DNA 1: GTGGGGGAGA
DNA 2: TCTCCCCCAC
ZFP SBS#731
  Kd: 12 nM
